What was measured:
[1] = target: T1, hiR2-FL-V524A-T7 (human, UniProt Q6PJF5 1-856); assay: FACS on MEF-DKO cells expressing the variant, 3 µg/ml antibody
T1 sequence: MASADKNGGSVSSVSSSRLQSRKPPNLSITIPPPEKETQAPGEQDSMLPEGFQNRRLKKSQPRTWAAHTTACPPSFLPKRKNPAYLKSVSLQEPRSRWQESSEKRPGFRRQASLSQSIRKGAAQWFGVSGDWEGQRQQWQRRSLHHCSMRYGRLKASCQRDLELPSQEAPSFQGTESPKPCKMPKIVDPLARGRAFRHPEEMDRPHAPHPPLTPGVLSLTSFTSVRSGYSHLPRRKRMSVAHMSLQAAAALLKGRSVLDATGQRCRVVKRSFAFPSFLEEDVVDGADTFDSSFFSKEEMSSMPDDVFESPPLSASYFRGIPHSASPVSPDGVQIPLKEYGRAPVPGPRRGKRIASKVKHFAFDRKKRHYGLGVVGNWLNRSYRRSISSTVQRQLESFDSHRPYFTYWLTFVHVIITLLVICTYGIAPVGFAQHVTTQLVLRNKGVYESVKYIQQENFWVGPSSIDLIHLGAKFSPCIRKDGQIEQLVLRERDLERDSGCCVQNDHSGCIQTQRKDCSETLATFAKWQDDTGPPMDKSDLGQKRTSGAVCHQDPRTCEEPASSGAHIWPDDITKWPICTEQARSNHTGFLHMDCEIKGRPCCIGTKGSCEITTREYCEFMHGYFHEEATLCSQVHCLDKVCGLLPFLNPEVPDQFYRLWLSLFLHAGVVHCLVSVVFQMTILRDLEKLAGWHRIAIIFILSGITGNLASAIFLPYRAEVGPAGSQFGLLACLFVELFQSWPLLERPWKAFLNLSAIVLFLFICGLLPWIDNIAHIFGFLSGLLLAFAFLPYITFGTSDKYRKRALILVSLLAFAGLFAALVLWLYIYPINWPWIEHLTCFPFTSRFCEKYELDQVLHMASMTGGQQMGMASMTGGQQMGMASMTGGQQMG
Outline: (§1)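 Cells were stained with purified antibody at 3 μg/ml in FACS buffer for 1 hour on ice, with buffer-only controls. Bound antibody was detected with PE-conjugated goat anti-mouse IgG F(ab′)2 at 1:100, 1 hour on ice in the dark, followed by flow cytometry.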

[2] = target: T2, hiR2-FL-Q510A-T7 (human, UniProt Q6PJF5 1-856); assay: as above
T2 construct: reduced surface expression reported
T2 sequence: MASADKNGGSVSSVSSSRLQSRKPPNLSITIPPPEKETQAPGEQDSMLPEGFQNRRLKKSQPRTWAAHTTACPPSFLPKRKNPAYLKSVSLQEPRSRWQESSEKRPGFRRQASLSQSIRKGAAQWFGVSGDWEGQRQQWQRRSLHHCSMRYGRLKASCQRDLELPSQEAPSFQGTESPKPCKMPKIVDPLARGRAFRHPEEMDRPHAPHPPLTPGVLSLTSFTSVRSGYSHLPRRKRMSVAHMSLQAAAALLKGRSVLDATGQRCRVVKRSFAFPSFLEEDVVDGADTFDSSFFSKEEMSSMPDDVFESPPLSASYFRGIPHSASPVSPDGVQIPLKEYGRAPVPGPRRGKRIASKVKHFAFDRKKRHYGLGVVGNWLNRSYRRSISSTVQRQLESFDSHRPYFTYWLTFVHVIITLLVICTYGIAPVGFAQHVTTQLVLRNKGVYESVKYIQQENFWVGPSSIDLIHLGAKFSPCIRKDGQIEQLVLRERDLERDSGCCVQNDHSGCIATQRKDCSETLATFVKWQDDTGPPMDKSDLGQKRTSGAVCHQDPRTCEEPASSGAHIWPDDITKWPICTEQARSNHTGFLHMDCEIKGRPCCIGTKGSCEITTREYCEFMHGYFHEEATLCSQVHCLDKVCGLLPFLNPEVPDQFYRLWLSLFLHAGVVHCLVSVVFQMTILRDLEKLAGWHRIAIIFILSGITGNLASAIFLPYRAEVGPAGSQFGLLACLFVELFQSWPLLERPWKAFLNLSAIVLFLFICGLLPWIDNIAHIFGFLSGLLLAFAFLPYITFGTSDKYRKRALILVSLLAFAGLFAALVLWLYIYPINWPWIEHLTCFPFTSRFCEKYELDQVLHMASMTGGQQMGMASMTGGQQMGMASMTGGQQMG
Outline: as §1

B1: antibody 50 (antibody, V domains shown)
VH: QVQLQQSGAELVRPGASVKVSCKASGYAFSNYLIEWVKQRPGQGLEWIGVINPGSGFTKYNEKFKGKATLTADKSSSTAYMQLSSLTSEDSAVYFCARGLYRAMDYWGQGTSVTVSS
VL: DIQMTQSPASQSASLGESVTITCLASQTIGTWLAWYQQKPGKSPQLLIYAAASLADGVPSRFSGGGSGTKFSFKISSLQAEDFVNYYCQQIYSTPYTFGGGTKLEIK
notes: mouse IgG, kappa light chain; also called clone #50; purified antibody 50
loss of binding vs wild type [1]: ≥ 30% | loss of binding vs wild type [2]: ≥ 30%
